Assay results taken from patent EP0526502B1, “PHENOLIC AMINE DEPIGMENTING AND ANTIMELANOMA AGENTS” (The Governors of the University of Alberta, priority 1990, dated 1991).

Substrate: NCCSc1ccc(O)cc1
Assay: Enzyme kinetics with monoamineoxidase (substrate disappearance by HPLC, Lineweaver-Burk)
Assay type: biochemical
Settings: other: plasma monoamine oxidase, 0.005 unit/ml, pH 7.4, 37°C
Experimental: Mushroom tyrosinase (400 units/mg) and plasma MAO (1000 units/gm) were obtained from Sigma Chemical Co. (St. Louis, MO, USA). A reaction mixture consisted of a substrate of 7 to 8 different concentrations (40 to 500 »M for mushroom tyrosinase and 20 to 200 »M for MAO) and of either mushroom tyrosinase (2.5 »g) or MAO (10 »g) in 1.0 mL of 0.05 M sodium phosphate buffer, pH 6.8 and 7.4 respectively. The reactions were carried out at 37°C in a shaking water bath, and stopped by taking 100 »L of the reaction mixture and adding it to 900 »L of 0.4 M HCLO₄. The disappearance of substrate was followed using HPLC (high pressure liquid chromatography) Km and Vmax values were calculated from the Lineweaver-Burk plots.

B1: plasma MAO (Bos taurus) (protein)
chain: REEGGVGSEEGVGKQCHPSLPPRCPSRSPSDQPWTHPDQSQLFADLSREELTTVMSFLTQQLGPDLVDAAQARPSDNCVFSVELQLPPKAAALAHLDRGSPPPAREALAIVFFGGQPQPNVTELVVGPLPQPSYMRDVTVERHGGPLPYYRRPVLLREYLDIDQMIFNRELPQAAGVLHHCCSYKQGGQKLLTMNSAPRGVQSGDRSTWFGIYYNITKGGPYLHPVGLELLVDHKALDPADWTVQKVFFQGRYYENLAQLEEQFEAGQVNVVVIPDDGTGGFWSLKSQVPPGPTPPLQFHPQGPRFSVQGNRVASSLWTFSFGLGAFSGPRVFDVRFQGERLAYEISLQEAGAVYGGNTPAAMLTRYMDSGFGMGYFATPLIRGVDCPYLATYMDWHFVVESQTPKTLHDAFCVFEQNKGLPLRRHHSDFLSHYFGGVAQTVLVFRSVSTMLNYDYVWDMVFYPNGAIEVKLHATGYISSAFLFGAARRYGNQVGEHTLGPVHTHSAHYKVDLDVGGLENWVWAEDMAFVPTAIPWSPEHQIQRLQVTRKQLETEEQAAFPLGGASPRYLYLASKQSNKWGHPRGYRIQTVSFAGGPMPQNSPMERAFSWGRYQLAITQRKETEPSSSSVFNQNDPWTPTVDFSDFINNETIAGKDLVAWVTAGFLHIPHAEDIPNTVTVGNGVGFFLRPYNFFDQEPSMDSADSIYFREGQDAGSCEINPLACLPQAATCAPDLPVFSHGGYPEY
notes: purchased Sigma Chemical Co. (St. Louis, MO, USA)
Km: 52.6 µM
